Assay results from US20170226204A1 (PERONGEN BIOTHERAPEUTICS SUZHOU, published 2017).
Substitutions are numbered along the chain they refer to.

T1: human CD7 molecule (human, UniProt P09564 26-240)
T1 construct: whole, on cells; also called CD7 protein
T1 sequence (looked up): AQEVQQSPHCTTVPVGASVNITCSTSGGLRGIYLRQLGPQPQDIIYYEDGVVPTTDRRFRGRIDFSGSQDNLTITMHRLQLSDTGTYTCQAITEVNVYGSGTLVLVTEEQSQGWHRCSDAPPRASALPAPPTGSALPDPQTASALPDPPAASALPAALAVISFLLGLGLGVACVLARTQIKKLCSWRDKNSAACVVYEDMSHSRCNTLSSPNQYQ

B1: anti-human CD7 nanobody clone 1 (VHH)
VHH: DVQLQESGGGSVQAGGSLRLSCPASGYTFSHYCMGWNRQAPGKEREEVATIDTDDTPTYADSVMGRFTISRDNANNALYLQMNDLKPEDTSMYYCAIWMKLRGSCHDRRLEVRGQGTQVTVSI
B2: anti-human CD7 nanobody clone 3 (VHH)
VHH: B1 VHH with N37L, D55S, I97T, K100G
B3: anti-human CD7 nanobody clone 6 (VHH)
VHH: DVQLQESGGGSVQAGGSLRLSCAASGYTYSTYCMGWFRQAPGKEREGVATIDSDGSTSYADSVKGRFTISRDNAKNTLNLQMSSLKPEDTAMYYCAARFGPMGCVDLSTLSFGHWGQGTQVTVSI
B4: anti-human CD7 nanobody clone 4 (VHH)
VHH: DVQLQESGGGSVQAGGSLRLSCAASGYTTSRLCMAWFRQFPGKEREGVANVRLGGYKPAYADSVKGRFTLSEDSAKNTVYLEMNSLQPEDTAMYYCAADPGGGGSCPVALVRGDFDYWGQGTQVTVSI

Each binder was assayed against T1, human CD7 molecule (assay: phage whole-cell ELISA, 293T-CD7+ against 293T-CD7- cells; positive when OD is 2.5 times that of the control well).

Binding result, binds:
B1
B2
B3
B4
